{
  "source": "patent US6951919",
  "about": "(MOCHIDA PHARMACEUTICAL, dated 2005)",
  "test_in_all_cases": "cell-based or functional assay",
  "key": {"[1]": {"target": "Fas expressed endogenously on mouse primary hepatocytes (mouse), P25446"}, "[2]": {"target": "T1, Fas on mouse W4 cells (mouse WR19L cell transformants that overexpress Fas) (UniProt P25446 22-327, limits assumed)", "T1 sequence (looked up)": "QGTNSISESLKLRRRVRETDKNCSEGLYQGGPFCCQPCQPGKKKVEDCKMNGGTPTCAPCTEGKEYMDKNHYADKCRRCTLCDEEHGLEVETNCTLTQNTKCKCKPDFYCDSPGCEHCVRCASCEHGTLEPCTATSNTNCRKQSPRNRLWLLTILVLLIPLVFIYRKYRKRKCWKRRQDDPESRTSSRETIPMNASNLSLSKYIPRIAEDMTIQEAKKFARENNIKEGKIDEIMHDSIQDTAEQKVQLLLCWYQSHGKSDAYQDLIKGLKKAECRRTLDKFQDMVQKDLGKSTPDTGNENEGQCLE"}, "[3]": {"target": "T2, Fas expressed endogenously on human Jurkat cells (human, UniProt P25445 26-335)", "T2 sequence (looked up)": "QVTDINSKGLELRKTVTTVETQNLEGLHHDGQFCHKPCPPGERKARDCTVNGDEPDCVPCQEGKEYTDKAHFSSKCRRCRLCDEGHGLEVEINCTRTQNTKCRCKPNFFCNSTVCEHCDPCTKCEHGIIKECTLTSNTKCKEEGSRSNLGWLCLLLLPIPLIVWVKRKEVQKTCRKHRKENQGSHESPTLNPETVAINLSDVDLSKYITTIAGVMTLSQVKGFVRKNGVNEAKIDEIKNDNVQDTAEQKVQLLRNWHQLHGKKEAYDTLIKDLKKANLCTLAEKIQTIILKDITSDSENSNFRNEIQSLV"}},
  "data": [
    {"binder": "human soluble Fas ligand, P48023 130-281 (ligand) QIGHPSPPPEKKELRKVAHLTGKSNSRSMPLEWEDTYGIVLLSGVKYKKGGLVINETGLYFVYSKVYFRGQSCNNLPLSHKVYMRNSKYPQDLVMMEGKMMSYCTTGQMWARSSYLGAVFNLTSADHLYVNVSELSLVNFEESQTFFGLYKL", "values": [
      {"measurement": "concentration of soluble FasL that blocks half of the cytotoxic activity of membrane-bound FasL (D4 mutant) on mouse hepatocytes at E/T 2.0, GOT release", "setting": "[1]", "result": 0.4, "unit": "µg/mL"}
    ]},
    {"binder": "D4 deletion mutant of human FasL (amino acids 8-69 and 111-133 deleted) (ligand) MQQPFNYPLKKRGNHSTGLCLLVMFFMVLVALVGLGLGMFQLFHLQKEPSPPPEKKELRKVAHLTGKSNSRSMPLEWEDTYGIVLLSGVKYKKGGLVINETGLYFVYSKVYFRGQSCNNLPLSHKVYMRNSKYPQDLVMMEGKMMSYCTTGQMWARSSYLGAVFNLTSADHLYVNVSELSLVNFEESQTFFGLYKL", "values": [
      {"measurement": "specific killing of W4 cells at an E/T ratio of 5.0, 51Cr-release", "setting": "[2]", "result": "~50", "unit": "%"},
      {"measurement": "specific killing of Jurkat cells at an E/T ratio of 3.0, 51Cr-release", "setting": "[3]", "result": "≥ 20", "unit": "%"}
    ]}
  ]
}
